Data as given in PMC7953810, “Divergent CPEB prion-like domains reveal different assembly mechanisms for a generic amyloid-like fold” (BMC Biology, 2021).

Biological target: T1, peptide DQ, ApCPEB PLD residues 121-140 with an N-terminal dansyl moiety (Aplysia californica, dansyl moiety (D*) on the N-terminus)
T1 construct: source: synthetic peptide, bought: GenScript
T1 peptide: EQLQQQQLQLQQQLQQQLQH
Assay: FRET or BRET + other: 1D 1H NMR; 20-mer peptides at 5 °C in 10 mM KH2PO4; excitation of Trp at 280 nm, dansyl emission at 530-550 nm; 1D 1H NMR with DSS as concentration standard
Conditions: both partners purified

B1: peptide QW, ApCPEB PLD residues 121-140 with a C-terminal Trp (peptide)
peptide: EQLQQQQLQLQQQLQQQLQHW
notes: Trp added at the C-terminus (excited at 280 nm as the fluorescence donor); Wild-type stretch with one added Trp as a fluorescence probe; source: synthetic peptide, bought: GenScript
B1: binds.

B2: peptide WQ, ApCPEB PLD residues 121-140 with an N-terminal Trp (peptide)
peptide: WEQLQQQQLQLQQQLQQQLQH
notes: Trp added at the N-terminus (excited at 280 nm as the fluorescence donor); Wild-type stretch with one added Trp as a fluorescence probe; source: synthetic peptide, bought: GenScript
B2: binds.
